Test results reported in patent US20240124597A1 (Bristol-Myers Squibb, published 2024).

B1: Y12XX-hz14 (antibody, human IgG1, kappa, V domains shown)
VH: QVQLVQSGAEVKKPGSSVKVSCKASGYAFTSYWMHWVRQAPGQGLEWMGQINPTTGRSQYNEKFKTRVTITADKSTSTAYMELSSLRSEDTAVYYCARWGLQPFAYWGQGTLVTVSS
VL: DIQMTQSPSSLSASVGDRVTITCKASQDVSTAVAWYQQKPGKAPKLLIYSASYRYTGVPSRFSGSGSGTDFTFTISSLQPEDIATYYCQQHYSTPWTFGGGTKVEIKR
notes: Humanized, IgG1-P238K; supernatant sample
B2: Y12XX-hz25 (antibody, human IgG1, kappa, V domains shown)
VH: QVQLVQSGAEVKKPGSSVKVSCKASGYAFTSYWMHWVRQRPGQGLEWIGQINPSNGRSQYNEKFKTRVTITADKSTSTAYMELSSLRSEDTAVYYCARWGLQPFAYWGQGTLVTVSS
VL: DIQMTQSPSFLSASVGDRVTITCKASQDVSTAVAWYQQKPGKAPKLLIYSASYRYTGVPSRFSGSGSGTDFTLTISSLQPEDFATYYCQQHYSTPWTFGGGTKVEIKR
notes: as for B1
B3: Y12XX-hz27 (antibody, human IgG1, kappa, V domains shown)
VH: QVQLVQSGAEVKKPGSSVKVSCKASGYAFTSYWMHWVRQAPGQGLEWMGQINPSNARSQYNEKFKTRVTITADKSTSTAYMELSSLRSEDTAVYYCARWGLQPFAYWGQGTLVTVSS
VL: DIQMTQSPSFLSASVGDRVTITCKASQDVSTAVAWYQQKPGKAPKLLIYSASYRYTGVPSRFSGSGSGTDFTLTISSLQPEDFATYYCQQHYSTPWTFGGGTKVEIKR
notes: as for B1
B4: Y12XX-hz2 (antibody, human IgG1, kappa, V domains shown)
VH: QVQLVQSGAEVKKPGSSVKVSCKASGYAFTSYWMHWVRQRPGQGLEWMGFINPTTGYSEYNQKFKDRVTITADKSTSTAYMELSSLRSEDTAVYYCARWGLPPFAYWGQGTLVTVSS
VL: DIQMTQSPSSLSASVGDRVTITCKASQDVSTAVAWYQQKPGKAPKLLIYSASYRYTGVPSRFSGSGSGTDFTFTISSLQPEDIATYYCQQHYSTPWTFGGGTKVEIKR
notes: as for B1
B5: Y12XX-hz10 (antibody, human IgG1, kappa, V domains shown)
VH: QVQLVQSGAEVKKPGSSVKVSCKASGYAFTSYWMHWVRQRPGQGLEWMGQINPSNGRSQYNEKFKTRVTITADKSTSTAYMELSSLRSEDTAVYYCARWGLQPFAYWGQGTLVTVSS
VL: DIQMTQSPSSLSASVGDRVTITCKASQDVSTAVAWYQQKPGKAPKLLIYSASYRYTGVPSRFSGSGSGTDFTFTISSLQPEDIATYYCQQHYSTPWTFGGGTKVEIKR
notes: as for B1
B6: Y12XX-hz12 (antibody, human IgG1, kappa, V domains shown)
VH: QVQLVQSGAEVKKPGSSVKVSCKASGYAFTSYWMHWVRQAPGQGLEWMGQINPSQGRSQYNEKFKTRVTITADKSTSTAYMELSSLRSEDTAVYYCARWGLQPFAYWGQGTLVTVSS
VL: DIQMTQSPSSLSASVGDRVTITCKASQDVSTAVAWYQQKPGKAPKLLIYSASYRYTGVPSRFSGSGSGTDFTFTISSLQPEDIATYYCQQHYSTPWTFGGGTKVEIKR
notes: as for B1
B7: Y12XX-hz23 (antibody, human IgG1, kappa, V domains shown)
VH: QVQLVQSGAEVKKPGSSVKVSCKASGYAFTSYWMHWVRQAPGQGLEWMGQINPSNGRSQYNEKFKTRVTITADKSTSTAYMELSSLRSEDTAVYYCARWGLQPFAYWGQGTLVTVSS
VL: DIQMTQSPSFLSASVGDRVTITCKASQDVSTAVAWYQQKPGKAPKLLIYSASYRYTGVPSRFSGSGSGTDFTLTISSLQPEDFATYYCQQHYSTPWTFGGGTKVEIKR
notes: as for B1
B8: Y12XX-hz1 (antibody, human IgG1, kappa, V domains shown)
VH: QVQLVQSGAEVKKPGSSVKVSCKASGYAFTSYWMHWVRQAPGQGLEWMGFINPTTGYSEYNQKFKDRVTITADKSTSTAYMELSSLRSEDTAVYYCARWGLPPFAYWGQGTLVTVSS
VL: DIQMTQSPSSLSASVGDRVTITCKASQDVSTAVAWYQQKPGKAPKLLIYSASYRYTGVPSRFSGSGSGTDFTFTISSLQPEDIATYYCQQHYSTPWTFGGGTKVEIKR
notes: as for B1
B9: Y12XX-hz5 (antibody, human IgG1, kappa, V domains shown)
VH: QVQLVQSGAEVKKPGSSVKVSCKASGYAFTSYWMHWVRQRPGQGLEWMGYINPTTGYSAYNQKFKDKATLTADKSTSTAYMELSSLRSEDTAVYYCARWDPRPFAYWGQGTLVTVSS
VL: DIQMTQSPSSLSASVGDRVTITCKASQDVSTAVAWYQQKPGKAPKLLIYSASYRYTGVPSRFSGSGSGTDFTFTISSLQPEDIATYYCQQHYSTPWTFGGGTKVEIKR
notes: as for B1
B10: Y12XX-hz24 (antibody, human IgG1, kappa, V domains shown)
VH: QVQLVQSGAEVKKPGSSVKVSCKASGYAFTSYWMHWVRQRPGQGLEWMGQINPSNGRSQYNEKFKTRVTITADKSTSTAYMELSSLRSEDTAVYYCARWGLQPFAYWGQGTLVTVSS
VL: DIQMTQSPSFLSASVGDRVTITCKASQDVSTAVAWYQQKPGKAPKLLIYSASYRYTGVPSRFSGSGSGTDFTLTISSLQPEDFATYYCQQHYSTPWTFGGGTKVEIKR
notes: as for B1
B11: Y12XX-hz17 (antibody, human IgG1, kappa, V domains shown)
VH: QVQLVQSGAEVKKPGSSVKVSCKASGYAFTSYWMHWVRQRPGQGLEWIGFINPTTGYSEYNQKFKDRVTITADKSTSTAYMELNSLRSEDTAVYYCARWGLPPFAYWGQGTLVTVSS
VL: DIQMTQSPSFLSASVGDRVTITCKASQDVSTAVAWYQQKPGKAPKLLIYSASYRYTGVPSRFSGSGSGTDFTLTISSLQPEDFATYYCQQHYSTPWTFGGGTKVEIKR
notes: as for B1
B12: Y12XX-hz3 (antibody, human IgG1, kappa, V domains shown)
VH: QVQLVQSGAEVKKPGSSVKVSCKASGYAFTSYWMHWVRQRPGQGLEWIGFINPTTGYSEYNQKFKDRVTITADKSTSTAYMELNSLRSEDTAVYYCARWGLPPFAYWGQGTLVTVSS
VL: DIQMTQSPSSLSASVGDRVTITCKASQDVSTAVAWYQQKPGKAPKLLIYSASYRYTGVPSRFSGSGSGTDFTFTISSLQPEDIATYYCQQHYSTPWTFGGGTKVEIKR
notes: as for B1
B13: Y12XX-hz8 (antibody, human IgG1, kappa, V domains shown)
VH: QVQLVQSGAEVKKPGSSVKVSCKASGYAFTSYWMHWVRQAPGQGLEWMGYINPTTGYSAYNQKFKDKATLTADKSTSTAYMELSSLRSEDTAVYYCARWDARPFAYWGQGTLVTVSS
VL: DIQMTQSPSSLSASVGDRVTITCKASQDVSTAVAWYQQKPGKAPKLLIYSASYRYTGVPSRFSGSGSGTDFTFTISSLQPEDIATYYCQQHYSTPWTFGGGTKVEIKR
notes: as for B1
B14: Y12XX-hz11 (antibody, human IgG1, kappa, V domains shown)
VH: QVQLVQSGAEVKKPGSSVKVSCKASGYAFTSYWMHWVRQRPGQGLEWIGQINPSNGRSQYNEKFKTRVTITADKSTSTAYMELSSLRSEDTAVYYCARWGLQPFAYWGQGTLVTVSS
VL: DIQMTQSPSSLSASVGDRVTITCKASQDVSTAVAWYQQKPGKAPKLLIYSASYRYTGVPSRFSGSGSGTDFTFTISSLQPEDIATYYCQQHYSTPWTFGGGTKVEIKR
notes: as for B1
B15: Y12XX-hz13 (antibody, human IgG1, kappa, V domains shown)
VH: QVQLVQSGAEVKKPGSSVKVSCKASGYAFTSYWMHWVRQAPGQGLEWMGQINPSNARSQYNEKFKTRVTITADKSTSTAYMELSSLRSEDTAVYYCARWGLQPFAYWGQGTLVTVSS
VL: DIQMTQSPSSLSASVGDRVTITCKASQDVSTAVAWYQQKPGKAPKLLIYSASYRYTGVPSRFSGSGSGTDFTFTISSLQPEDIATYYCQQHYSTPWTFGGGTKVEIKR
notes: as for B1
B16: Y12XX-hz26 (antibody, human IgG1, kappa, V domains shown)
VH: QVQLVQSGAEVKKPGSSVKVSCKASGYAFTSYWMHWVRQAPGQGLEWMGQINPSQGRSQYNEKFKTRVTITADKSTSTAYMELSSLRSEDTAVYYCARWGLQPFAYWGQGTLVTVSS
VL: DIQMTQSPSFLSASVGDRVTITCKASQDVSTAVAWYQQKPGKAPKLLIYSASYRYTGVPSRFSGSGSGTDFTLTISSLQPEDFATYYCQQHYSTPWTFGGGTKVEIKR
notes: as for B1
B17: Y12XX-hz9 (antibody, human IgG1, kappa, V domains shown)
VH: QVQLVQSGAEVKKPGSSVKVSCKASGYAFTSYWMHWVRQAPGQGLEWMGQINPSNGRSQYNEKFKTRVTITADKSTSTAYMELSSLRSEDTAVYYCARWGLQPFAYWGQGTLVTVSS
VL: DIQMTQSPSSLSASVGDRVTITCKASQDVSTAVAWYQQKPGKAPKLLIYSASYRYTGVPSRFSGSGSGTDFTFTISSLQPEDIATYYCQQHYSTPWTFGGGTKVEIKR
notes: as for B1
B18: Y12XX-hz4 (antibody, human IgG1, kappa, V domains shown)
VH: QVQLVQSGAEVKKPGSSVKVSCKASGYAFTSYWMHWVRQAPGQGLEWMGYINPTTGYSAYNQKFKDKATLTADKSTSTAYMELSSLRSEDTAVYYCARWDPRPFAYWGQGTLVTVSS
VL: DIQMTQSPSSLSASVGDRVTITCKASQDVSTAVAWYQQKPGKAPKLLIYSASYRYTGVPSRFSGSGSGTDFTFTISSLQPEDIATYYCQQHYSTPWTFGGGTKVEIKR
notes: as for B1
B19: Y12XX-hz15 (antibody, human IgG1, kappa, V domains shown)
VH: QVQLVQSGAEVKKPGSSVKVSCKASGYAFTSYWMHWVRQAPGQGLEWMGFINPTTGYSEYNQKFKDRVTITADKSTSTAYMELSSLRSEDTAVYYCARWGLPPFAYWGQGTLVTVSS
VL: DIQMTQSPSFLSASVGDRVTITCKASQDVSTAVAWYQQKPGKAPKLLIYSASYRYTGVPSRFSGSGSGTDFTLTISSLQPEDFATYYCQQHYSTPWTFGGGTKVEIKR
notes: as for B1

Target: T1, human-CD40-monomer protein (human, UniProt P25942 21-193, limits assumed)
T1 construct: Soluble monomer generated in house, used as SPR analyte; also called hCD40; hCD40-monomer
Assay: SPR, Ab captured on protein A, hCD40 monomer 500 and 50 nM, 1:1 fit; supernatant
Method: Titer analysis was performed using Biolayer Interferometry (BLI) on an Octet RED instrument (Fortebio) by capturing antibodies from supernatant using protein A sensor tips and measuring capture response with respect to a standard curve obtained using a control antibody sample. SPR data were obtained by capturing antibodies on a protein A surface and testing the binding of 500 nM and 50 nM injections of human-CD40 analyte, using a BIAcore™ T200 instrument (GE Healthcare). The kinetic data for the two concentrations of hCD40-monomer were fit to a 1:1 Langmuir model, to yield estimates of the kinetic and affinity values for these interactions, and for comparison of the different molecules.

T1 sequence (P25942 21-193 limits assumed): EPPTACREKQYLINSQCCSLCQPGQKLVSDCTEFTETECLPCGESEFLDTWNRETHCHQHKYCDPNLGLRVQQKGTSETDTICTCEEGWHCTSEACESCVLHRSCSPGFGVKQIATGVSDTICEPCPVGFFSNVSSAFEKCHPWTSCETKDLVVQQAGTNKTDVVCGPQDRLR

Binder	Kd	koff	kon
B1	5 nM	0.00083 s⁻¹	170000 M⁻¹ s⁻¹
B2	3.4 nM	0.00064 s⁻¹	190000 M⁻¹ s⁻¹
B3	4.7 nM	0.00088 s⁻¹	190000 M⁻¹ s⁻¹
B4	4.1 nM	7.1e-05 s⁻¹	17000 M⁻¹ s⁻¹
B5	3.6 nM	0.00073 s⁻¹	200000 M⁻¹ s⁻¹
B6	8.3 nM	0.0014 s⁻¹	170000 M⁻¹ s⁻¹
B7	3.2 nM	0.00064 s⁻¹	200000 M⁻¹ s⁻¹
B8	1.1 nM	1.6e-05 s⁻¹	15000 M⁻¹ s⁻¹
B9	7.2 nM	0.0025 s⁻¹	350000 M⁻¹ s⁻¹
B10	4.4 nM	0.00082 s⁻¹	190000 M⁻¹ s⁻¹
B11	210 nM	0.077 s⁻¹	370000 M⁻¹ s⁻¹
B12	4.5 nM	6.7e-05 s⁻¹	15000 M⁻¹ s⁻¹
B13	210 nM	0.15 s⁻¹	720000 M⁻¹ s⁻¹
B14	5 nM	0.00088 s⁻¹	180000 M⁻¹ s⁻¹
B15	3.9 nM	0.00083 s⁻¹	210000 M⁻¹ s⁻¹
B16	7.5 nM	0.0012 s⁻¹	160000 M⁻¹ s⁻¹
B17	4.6 nM	0.00089 s⁻¹	200000 M⁻¹ s⁻¹
B18	4.7 nM	0.0022 s⁻¹	460000 M⁻¹ s⁻¹
B19	8 nM	0.00013 s⁻¹	16000 M⁻¹ s⁻¹
